Experimental data from the supplement of paper PMC6757056.
± gives the standard deviation of the averaged measurements.

B1: library; a variant is named by its letters at N, in order (parent)
chain: GCUGUCACCGGUGCUUGGUACGUUAUAUUCAGCCGGUCUGAUGAGUCUNNNNNNAGACGAAACAGC

Legend:
[1] = variants of: B1; assay: normalized RNA/DNA level without ligand (relative to sTRSVctl = 100) (log10 (% of sTRSVctl)); HEK293T overexpressing SLC46A1; higher = less ribozyme self-cleavage, higher mRNA level; details: without (6R,S)-folinic acid; ligand present: no
Procedure, shortened: (§1)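 RNA level was computed as RNA reads over DNA reads divided by a spiked-in non-cleaving sequence or by the top sequences, then scaled and log-transformed. Scaling was ×100 with log10, the top group was 25 sequences, and the threshold was ≥100 DNA reads. The reads came from HEK293T cells transfected at 4 µg per 6-well well with ribozyme switch library plasmids (mCherry, or eGFP in some ligand experiments). Total RNA was extracted with EDTA 72 h after transfection, with any ligand added 1 h before it.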

[2] = variants of: B1; assay: normalized RNA/DNA level with ligand (relative to sTRSVctl = 100) (log10 (% of sTRSVctl)); HEK293T overexpressing SLC46A1; ligand concentration (+) RNA-Seq: 6 mM; higher = less ribozyme self-cleavage, higher mRNA level; details: with (6R,S)-folinic acid; ligand present: yes
Procedure, shortened: as §1

Variant | normalized RNA/DNA level without ligand (log10) [1] | normalized RNA/DNA level with ligand (log10) [2]
GCUGUCACCGGUGCUUGGUACGUUAUAUUCAGCCGGUCUGAUGAGUCUGCAACAAGACGAAACAGC | 2.058 ± 0.0047 | 2.05 ± 0.038
GCUGUCACCGGUGCUUGGUACGUUAUAUUCAGCCGGUCUGAUGAGUCUGCAACCAGACGAAACAGC | 2.033 ± 0.0054 | 2.019 ± 0.019
GCUGUCACCGGUGCUUGGUACGUUAUAUUCAGCCGGUCUGAUGAGUCUGCAACGAGACGAAACAGC | 1.982 ± 0.0082 | 2.014 ± 0.02
GCUGUCACCGGUGCUUGGUACGUUAUAUUCAGCCGGUCUGAUGAGUCUUCAACGAGACGAAACAGC | 1.909 ± 0.0028 | 2 ± 0.034
GCUGUCACCGGUGCUUGGUACGUUAUAUUCAGCCGGUCUGAUGAGUCUUCAACAAGACGAAACAGC | 1.987 ± 0.0049 | 2.017 ± 0.018
GCUGUCACCGGUGCUUGGUACGUUAUAUUCAGCCGGUCUGAUGAGUCUGCAAGUAGACGAAACAGC | 2.009 ± 0.012 | 2.023 ± 0.02
GCUGUCACCGGUGCUUGGUACGUUAUAUUCAGCCGGUCUGAUGAGUCUGCAAGCAGACGAAACAGC | 2.011 ± 0.0087 | 2.023 ± 0.014
GCUGUCACCGGUGCUUGGUACGUUAUAUUCAGCCGGUCUGAUGAGUCUUCAAUCAGACGAAACAGC | 2.074 ± 0.0092 | 2.06 ± 0.048
GCUGUCACCGGUGCUUGGUACGUUAUAUUCAGCCGGUCUGAUGAGUCUUCAAUAAGACGAAACAGC | 1.9534 ± 0.0012 | 1.98 ± 0.031
GCUGUCACCGGUGCUUGGUACGUUAUAUUCAGCCGGUCUGAUGAGUCUGAUUUUAGACGAAACAGC | 2.011 ± 0.0062 | 2.026 ± 0.0072
GCUGUCACCGGUGCUUGGUACGUUAUAUUCAGCCGGUCUGAUGAGUCUUCAAGUAGACGAAACAGC | 1.984 ± 0.0097 | 2.02 ± 0.045
GCUGUCACCGGUGCUUGGUACGUUAUAUUCAGCCGGUCUGAUGAGUCUUCAAGGAGACGAAACAGC | 1.96 ± 0.023 | 2 ± 0.033
GCUGUCACCGGUGCUUGGUACGUUAUAUUCAGCCGGUCUGAUGAGUCUACAAUCAGACGAAACAGC | 2.043 ± 0.01 | 2.03 ± 0.031
GCUGUCACCGGUGCUUGGUACGUUAUAUUCAGCCGGUCUGAUGAGUCUUCAAAUAGACGAAACAGC | 1.96 ± 0.017 | 2.004 ± 0.017
GCUGUCACCGGUGCUUGGUACGUUAUAUUCAGCCGGUCUGAUGAGUCUUCAAAGAGACGAAACAGC | 1.817 ± 0.0038 | 1.98 ± 0.032
GCUGUCACCGGUGCUUGGUACGUUAUAUUCAGCCGGUCUGAUGAGUCUGCAAUAAGACGAAACAGC | 2.014 ± 0.013 | 2.03 ± 0.026
GCUGUCACCGGUGCUUGGUACGUUAUAUUCAGCCGGUCUGAUGAGUCUGCAAUCAGACGAAACAGC | 2.03 ± 0.02 | 2.03 ± 0.038
GCUGUCACCGGUGCUUGGUACGUUAUAUUCAGCCGGUCUGAUGAGUCUGCAAAGAGACGAAACAGC | 1.95 ± 0.0068 | 2.018 ± 0.012
GCUGUCACCGGUGCUUGGUACGUUAUAUUCAGCCGGUCUGAUGAGUCUGCAAAUAGACGAAACAGC | 2 ± 0.022 | 2.03 ± 0.03
GCUGUCACCGGUGCUUGGUACGUUAUAUUCAGCCGGUCUGAUGAGUCUGCAAACAGACGAAACAGC | 1.974 ± 0.0046 | 2.02 ± 0.023
